B1: Ha1-4.37: fully human gamma 1 anti-PSCA monoclonal antibody from XenoMouse; ATCC PTA-6702; sequences FIG. 2P-2Q (antibody, V domains shown)
VH: CPGALQESGPGLVRPSQTLSLTCTVSGGSISSGGTYYWIWIRQHPGKGLEWIGYIYYSGSTYYNPSLKSRVTISVDTSKNQFSLKLSSVTAADTAVYYCARDGITMVRGISGGMDVWGQGTTVTVSSASTKGPSVKGPSVF
VL: ASVGDRVTITCRASQSISSHLNWYQQKPGKAPKLLIYAASSLQSGVPSRFSGSGSGTDFTLSISSLQPEDFATYFCQQSYSIPRTFGQGTKVEITRTVAAPSVFIFPPSDEQLKSGTASVVCLLNNFYPREAKVQWKVDNALQSG
B2: Ha1-5.99: fully human gamma 2 anti-PSCA monoclonal antibody from XenoMouse; ATCC PTA-6703; sequences FIG. 2E-2F (antibody, V domains shown)
VH: QVHLQQWGAGLLKPSETLSLTCAVYGGSFSGYYWSWIRQPPGKGLEWIGEINHSGSTSYKPSLKSRVTVSVDTSKNQFSLKLSYVTAADTAVYYCARDRGDYGDFLFDYWGQGTLVTVSSASTKGPSVFPLAPSSKST
VL: SPGERATLSCRASQSIGSTYLAWYQQKPGQAPRLLIYGASSRATGIPERFSGSGSGTDFTLTISGLEPEDFAVFYCQQCGSSPPTFGQGTKVEIKRTVAAPSVFIFPPSDEQLKSGTASVVCLLNNFYPREAKVQWKVDNA

Columns and labels:
[1] = target: T1, cell surface PSCA on PSCA-expressing cells (endogenous or recombinant) (Homo sapiens, UniProt O43653); experiment: PSCA human MAb screening by FACS; type: binding
T1 construct: host or cells: PSCA-expressing cells (endogenous or recombinant)
Experimental: FIGS. 9A and 9B. Screening for human PSCA antibodies by FACS. Antibody concentration from supernatants was determined by ELISA. 50 ul/well of (neat) was added to 96-well FACS plates and serially diluted. PSCA-expressing cells were added (endogenous or recombinant, 50,000 cells/well) and the mixture incubated at 4° C. for two hours. Following incubation, the cells were washed with FACS Buffer and further incubated with 100 ul of detection antibody (anti-hIgG-PE) for 45 minutes at 4° C. At the end of incubation, the cells were washed with FACS Buffer, fixed with formaldehyde and analyzed using FACScan. Data were analyzed using CellQuest Pro software. Solid histograms represent data from negative control cells and open histograms indicate data from PSCA-positive cells.
Primary hybridoma screening for MAbs to PSCA was performed by FACS. The protocol was as follows: 50 ul/well of hybridoma supernatant (neat) or purified antibodies (in serial dilutions) were added to 96-well FACS plates and mixed with PSCA-expressing cells (endogenous or recombinant, 50,000 cells/well). The mixture was incubated at 4° C. for two hours. At the end of incubation, the cells were washed with FACS Buffer and incubated with 100 ul of detection antibody (anti-hIgG-PE) for 45 minutes at 4° C. At the end of incubation, the cells were washed with FACS Buffer, fixed with Formaldehyde and analyzed using FACScan. Data were analyzed using CellQuest Pro software. Filled histograms indicate data from negative control cells, and open histograms represent data from PSCA-positive cells (FIG. 9).
Positive hybridomas identified from primary screens were transferred to 24-well plates and supernatants collected for confirmatory screens. Confirmatory screens included FACs analysis on B300.19-PSCA/300.19-neo, Rat1-PSCA/Rat1-neo, PC3-PSCA/neo, SW780 (bladder cancer cell line), LAPC9AI (prostate cancer cell line), HPAC (pancreatic cancer cell line), and ELISA assay using Tag5-PSCA, GST-PSCA, GST-PSCA N-term, Med. C-Term, and pET-PSCA.

[2] = system: SW780 human bladder tumors; experiment: Subcutaneous SW780 bladder tumor xenograft; type: in vivo, ICR SCID mice; details: 250 mg/mouse i.p. two times a week, 7 doses, from day of injection; t test
Experimental: (§1) FIG. 27. Human PSCA MAbs Inhibit the Growth of SW780 Bladder Tumors in SCID Mice. Human SW780 bladder cancer cells (2×10^6/mouse) were injected subcutaneously into immunodeficient ICR SCID mice (Taconic Farm, Germantown, N.Y.). The mice were randomized into groups (n=10 animals/group) and treatment with the indicated human PSCA MAb initiated the same day. Antibodies (250 mg/mouse) were delivered intraperitoneally two times a week for a total of 7 doses. […] Statistical analyses were performed using at test (two-sided, α=0.05).
as §1, with “In another experiment,” for “FIG. 27. Human PSCA MAbs Inhibit the Growth of SW780 Bladder Tumors in SCID Mice.”, “α=0.05) (FIG. 27).” for “α=0.05).”

[3] = system: B300.19-PSCA expressing cells; experiment: Complement mediated cytotoxicity; type: cell-based; details: 0-50 μg/ml antibody, rabbit complement serum, 2 hr 37° C., Alamar Blue
Experimental: (§2) FIG. 14. Complement mediated cytotoxicity of PSCA Mabs. PSCA antibodies (0-50 μg/ml) were diluted with RHB buffer (RPMI 1640, Gibco Life Technologies, 20 mM HEPES). B300.19-PSCA expressing cells were washed in RHB buffer and resuspended at a density of 10^6 cells/ml. In a typical assay, 50 μl of PSCA antibody, 50 μl of diluted rabbit complement serum (Cedarlane, Ontario, Can), and 50 μl of a cell suspension were added together into a flat-bottom tissue culture 96-well plate. The mixture was incubated for 2 hr. at 37° C. in a 5% CO2 incubator to facilitate complement-mediated cell lysis. […] The fluorescence in each well was read using a 96-well fluorometer with excitation at 530 nm and emission at 590 nm.
as §2, with “PSCA” for “FIG. 14. Complement mediated cytotoxicity of PSCA”, “antibodies were evaluated to determine their ability to mediate immune dependent cytotoxicity.” for “Mabs.”, “plate.” for “plate. The mixture was incubated for 2 hr. at 37° C. in a 5% CO2 incubator to facilitate complement-mediated cell lysis.”

[4] = system: LAPC-9AI androgen-independent human prostate cancer xenografts; experiment: Established subcutaneous LAPC-9AI prostate cancer xenograft; type: in vivo, SCID mice; details: treatment from tumor volume 50 mm3, i.p. twice weekly, 5 doses until day 14; p<0.05
Experimental: FIG. 19. PSCA MAb Ha1-5.99 Inhibits the Growth of Established Prostate Cancer Xenografts in SCID mice. LAPC-9AI tumor cells (2.0×10^6 cells) were injected subcutaneously into male SCID mice. When tumor volume reached 50 mm3, the mice were randomized into groups (n=10 in each group) and treatment initiated intraperitoneally (i.p.) with HA1-5.99.1 or isotype MAb control as indicated. Animals were treated twice weekly for a total of 5 doses until study day 14. Tumor growth was monitored using caliper measurements every 3 to 4 days as indicated.
In another experiment, LAPC-9AI tumor cells (2.0×10^6 cells) were injected subcutaneously into male SCID mice. When tumor volume reached 50 mm3, the mice were randomized into groups (n=10 in each group) and treatment initiated intraperitoneally (i.p.) with HA1-5.99.1 or isotype MAb control as indicated Animals were treated twice weekly for a total of 5 doses until study day 14. Tumor growth was monitored using caliper measurements every 3 to 4 days as indicated. […] (FIG. 19).

| binding to endogenous cell surface PSCA ([1]; PSCA expressed in prostate cancer xenograft cells) | Molecule | react and bind with cell surface or immobilized PSCA [1] | inhibition of subcutaneous tumor growth [2] | complement dependent lysis of target cells [3] | inhibition of growth of established subcutaneous tumors [4] |
| --- | --- | --- | --- | --- | --- |
| – | B1 | react and bind with cell surface or immobilized PSCA | significantly inhibited the growth | – | – |
| bind endogenous cell surface PSCA | B2 | react and bind with cell surface or immobilized PSCA | significantly inhibited the growth | able to mediate complement dependent lysis | significantly inhibited the growth |
